Assay [1] deals with transplanted kidney grafts. In words: Allograft biopsies scored by Chronic Allograft Damage Index (CADI). In kind it is in vivo, human. The settings on record: final biopsy. The source says: The quality of the graft was estimated using the Chronic Allograph Damage Index (CADI) (Isoniemi et al. 1992 and 1994), where scores of ≤1 reflects normal renal histology and higher scores correlate with poor long-term outcome (Hayry et al. 2004, Yilmaz et al. 2007, Yilmaz et al. 2003). Pristine renal histology was found in 3 of 5 patients on iscalimab (60%) and in none of the 7 treated with tacrolimus (0%). The average CADI was 1.60±0.60 for CFZ533 (n=5) vs. 5.14±0.80 for tacrolimus (n=7), (mean±SEM, p<0.01 using Student t)
A PoC Study in de Novo Renal Transplantation (CCFZ533X2101/NCT02217410) using CFZ533 was performed. […] Allograft biopsies were performed on a subset of study patients. A pathologist, blinded to therapy, reviewed and scored all biopsy slides using the established Banff criteria and calculated the chronic allograft damage index (CADI, Nickerson P et al., Legendre C et al., Seron D et al.,). A CADI of 1 or less was considered as ‘normal renal histology’. Two patients were excluded from the analysis, since they switched therapy after only 2 months. […] The average CADI at final biopsy was 1.6±0.6 for CFZ533 and 5.1±0.8 for tacrolimus, p<0.01.

Assay [2] deals with CD20pos B cells. Briefly: In vitro B cell depletion in human whole blood. The settings on record: 72 hours; Rituximab 50 μg/ml, CFZ533 dose titration. In kind it is cell-based. Here is the method: See supplementary material for detailed methods. Briefly, the ability of CFZ533 to mediated depletion of CD20^pos B cells was monitored in human whole blood over a period of three days in comparison to the B cell depleting antibody Rituximab. For CDC, CFZ533 or Rituximab were incubated with RAJI B cells in the presence or absence of rabbit complement and cell lysis was assessed by luminescence.
B cells numbers were determined based on CD45pos and CD19pos events falling within lymphocyte FSC (forward-scattered light)/SSC (side-scattered light) gate. Results for individual antibody concentrations were calculated as percent remaining B cells with reference to untreated samples and graphed as a function of log-transformed antibody concentration (adjusted to 100% and shown as a dotted line). Data represent the mean and SD of eight independent donors. […] Concentration dependent killing of the Raji cells was analyzed after 2 hours, where the viability of the cells was measured by determination of the ATP concentration in each well using luciferase. Results are presented as isotype-control normalized relative luciferase units (RLU) as a function of log-transformed antibody concentration.

Assay [3] concerns the target recombinant human CD40 (Homo sapiens, UniProt P25942). In words: Surface plasmon resonance analysis of affinity for CD40. In kind it is binding. The settings on record: SPR, 25° C. On the procedure:
The binding analyses of recombinant CFZ533 were performed at 25° C. with HBS−EP+ as running buffer. A typical binding analysis cycle consisted of three steps: (i) capture of the antibody via ProteinA immobilized on the chip surface, (ii) binding of CD40 antigen to the captured anti-CD40 antibody, and (iii) regeneration of the ProteinA surface. To determine the kinetic rate constants of the antigen-antibody binding interactions, binding data were processed, double referenced with responses from blank injections. The binding curves were fitted locally using the 1:1 interaction model of the Biacore T100 Evaluation software to determine kinetic rate constants. The value for the equilibrium dissociation constant (KD) was calculated as the ratio of the rate constants kd/ka. All binding measurements were performed in two independent experiments.
Background: Surface plasmon resonance follows binding to a sensor surface in real time, without labels.

For assay [4], the system named is human B cell line RI-1. Briefly: Internalization by image flow cytometry. In kind it is cell-based. The conditions noted are these: 3 hours at 37° C. Here is the method:
Internalization of fluorescently tagged CFZ533 and rCD154 was assessed in vitro using the human B cell line RI-1 (Th'ng et al, 1987). CD40 dependence of CFZ533 internalization was assessed using a CD40 knockout RI-1 cell line. Internalization was assessed using an Amnis® image flow cytometer (Merck KHaA, Darnstadt) according to the manufacturer's instructions and data analyzed using ImageStream®^X software.
FIG. 8B. Relative internalization erode of CFZ533 and rCD154 under permissive conditions (non-permissive erode values subtracted). Each dot represents data from an individual experiment and the population mean is indicated as a horizontal red line. FIG. 8C. Representative images of individual CD40 expressing or CD40 knock-out RI-1 cells cultured with Alexa488 labeled CFZ533 for 3 hours at 37° C. In all experiments, cells were co-stained with AlexaFlour 647 labeled CD45 to demark the cell membrane.
For orientation: A flow cytometer gives signals particle by particle.

“And” between values parts separate entries of the source, which are not always exact repeats. Equal values may be shown once.

recombinant human CD40, sequence (P25942 21-277): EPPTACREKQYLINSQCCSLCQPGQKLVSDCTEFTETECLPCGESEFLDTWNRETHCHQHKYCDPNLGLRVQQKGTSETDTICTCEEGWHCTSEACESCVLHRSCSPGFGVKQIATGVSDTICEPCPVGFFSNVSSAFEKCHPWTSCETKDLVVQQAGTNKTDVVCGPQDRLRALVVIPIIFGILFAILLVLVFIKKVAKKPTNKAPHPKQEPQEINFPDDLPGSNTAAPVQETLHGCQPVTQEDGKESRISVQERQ

For `C=CC[C@@H]1/C=C(\C)C[C@H](C)C[C@H](OC)[C@H]2O[C@@](O)(C(=O)C(=O)N3CCCC[C@H]3C(=O)O[C@H](/C(C)=C/[C@@H]3CC[C@@H](O)[C@H](OC)C3)[C@H](C)[C@@H](O)CC1=O)[C@H](C)C[C@@H]2OC` [tacrolimus, reference compound], the “average CADI (mean±SEM)” value in assay [1] is 5.14±0.80 and 5.1±0.8. For “Rituximab: depleting anti-CD20 antibody [reference compound]”, the “B cells eliminated in human whole blood” value in assay [2] was “approximately 80%”. As for “HCD122: parental antibody, wild-type IgG1 version of CFZ533 [reference compound]”, in assay [3], the “ka [1/Ms]” value is listed as 2.84 ± 0.67 × 10^5 1/Ms and the “kd [1/s]” value was 1.26 ± 0.03 × 10^−4 1/s.

B1: rCD154: recombinant human CD154, the CD40 ligand (protein)
chain: MQKGDQNPQIAAHVISEASSKTTSVLQWAEKGYYTMSNNLVTLENGKQLTVKRQGLYYIYAQVTFCSNREASSQAPFIASLCLKSPGRFERILLRAANTHSSAKPCGQQSIHLGGVFELQPGASVFVNVTDPSQVSHGTGFTSFGLLKL
Regarding B1, in assay [4], the “Internalization by RI-1 B cells” value is listed as “internalized”.

(Values after patent US11780927B2, “Anti-CD40 antibodies for use in prevention of graft rejection” (NOVARTIS AG, priority 2018, dated 2023).)
